The values below come from patent US20090246189A1 (Biogen, published 2009).

The assay deals with T1, endogenous EGFR in mouse ventral midbrain (VM) tissue (mouse, UniProt Q01279 25-1210).
T1 construct: Native protein in a tissue extract
Put plainly: co-immunoprecipitation from mouse ventral midbrain extracts, Western blot. The method, then: COS-7 or HEK 293 cells (100 mm dishes) were transfected with Sp35, EGFR and Sp35/EGFR. The cells were harvested after 48 hours and lysed in 1 ml lysis buffer (50 mM HEPES, pH 7.5, 150 mM NaCl, 1.5 mM MgCl₂, 1 mM EDTA, 1% Triton x-100, 10% glycerol) or RIPA buffer (50 mM TRIS, pH 7.2, 1% Triton X-100, 0.5% sodium deoxycholate, 0.1% SDS, 150 mM NaCl, 10 mM MgCl₂, 5% glycerol) for 30 minutes at 4° C. After centrifugation at 14,000×g for 15 minutes, the supernatants were incubated with Protein A/G-Sepharose beads (Santa Cruz Biotechnology) at 4° C. for 1 hour, and then 200 μl of the precleared lystates were incubated with either anti-EGFR (Santa Cruz Biotechnology) at 4° C. for 1 hour, anti-Sp35 antibody (Biogen Idec, described in U.S. Provisional Patent Application No. 60/697,336, which is incorporated by reference herein in its entirety) followed by treatment with Protein A/G-Sepharose beads. The beads were washed 3 times with lysis buffer, boiled in Laemmeli sample buffer, subjected to 4-20% SDS-PAGE, and analyzed by Western blotting with anti-EGFR antibody or anti-Sp35 antibody. The EGFR and Sp35 antibodies were visualized using anti-rabbit IgG-HRP.
Sp35 KO or WT VMs were lysed in RIPA buffer and pre-cleared by Protein A/G plus-Sepharose beads as described above. […]

B1: endogenous Sp35 (LINGO-1) in mouse ventral midbrain (VM) tissue (receptor, UniProt Q9D1T0 36-614, looked up)
chain: CPPRCECSAQDRAVLCHRKRFVAVPEGIPTETRLLDLGKNRIKTLNQDEFASFPHLEELELNENIVSAVEPGAFNNLFNLRTLGLRSNRLKLIPLGVFTGLSNLTKLDISENKIVILLDYMFQDLYNLKSLEVGDNDLVYISHRAFSGLNSLEQLTLEKCNLTSIPTEALSHLHGLIVLRLRHLNINAIRDYSFKRLYRLKVLEISHWPYLDTMTPNCLYGLNLTSLSITHCNLTAVPYLAVRHLVYLRFLNLSYNPIGTIEGSMLHELLRLQEIQLVGGQLAVVEPYAFRGLNYLRVLNVSGNQLTTLEESAFHSVGNLETLILDSNPLACDCRLLWVFRRRWRLNFNRQQPTCATPEFVQGKEFKDFPDVLLPNYFTCRRAHIRDRKAQQVFVDEGHTVQFVCRADGDPPPAILWLSPRKHLVSAKSNGRLTVFPDGTLEVRYAQVQDNGTYLCIAANAGGNDSMPAHLHVRSYSPDWPHQPNKTFAFISNQPGEGEANSTRATVPFPFDIKTLIIATTMGFISFLGVVLFCLVLLFLWSRGKGNTKHNIEIEYVPRKSDAGISSADAPRKFNMKMI
notes: Native protein in a tissue extract; Sp35 knock-out VM served as the control
B1: the binding result was “binds”.
